The subject of this data set is ZAP-S. Put plainly: MST.

The record followed here is paper doi:10.1101/2021.05.31.445667.

The term Kd denotes the concentration at which binding is half-saturated.

SARS-CoV-2 -1PRF pseudoknot RNA (WT): the Kd came to 121 nM.
